Common to all, as to conditions: both partners purified
The target of assay [1] is T1, KDM4A-DTD N931D (human, UniProt O75164 895-1011, N931D).
T1 construct: Human KDM4A double tudor domain, residues 895-1011 of UniProt O75164 (isoform 1); source: E. coli BL21 (DE3), purified (Ni-NTA)
T1 sequence (looked up): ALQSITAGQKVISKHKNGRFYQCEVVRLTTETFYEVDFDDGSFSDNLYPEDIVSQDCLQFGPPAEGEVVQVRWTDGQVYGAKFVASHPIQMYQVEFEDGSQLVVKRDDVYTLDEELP
Put plainly: fluorescence polarisation; fluorescein-labelled histone peptide 3 nM, KDM4 DTD titrated 0.1-100 μM; 30 mM HEPES, 150 mM NaCl pH 7.4, 0.01% Triton X-100. Background: In fluorescence polarisation assays a small probe gives low polarisation when free and higher when bound to something large.

Assay [2] addresses T2, KDM4B-DTD N960A (human, UniProt O94953 917-1031, N960A).
T2 construct: Human KDM4B double tudor domain, residues 917-1031 of UniProt O94953 (isoform 1); also called N960A variant; source: E. coli BL21 (DE3), purified (Ni-NTA)
T2 sequence (looked up): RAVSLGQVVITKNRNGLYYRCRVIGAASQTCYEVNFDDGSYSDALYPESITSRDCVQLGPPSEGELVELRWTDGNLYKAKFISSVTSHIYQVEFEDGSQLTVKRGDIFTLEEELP
The description is as above.

In assay [3] the target is T3, KDM4C double tudor domain (KDM4C-DTD), HaloTag-tagged, wild type (human, UniProt Q9H3R0 877-991).
T3 construct: Human KDM4C double tudor domain, residues 877-991 of UniProt Q9H3R0 (isoform 1); pFN29 construct; also called HT-KDM4 DTD; source: E. coli BL21 (DE3), purified (Ni-NTA); not shown: HaloTag, N-terminal, kept
T3 sequence (looked up): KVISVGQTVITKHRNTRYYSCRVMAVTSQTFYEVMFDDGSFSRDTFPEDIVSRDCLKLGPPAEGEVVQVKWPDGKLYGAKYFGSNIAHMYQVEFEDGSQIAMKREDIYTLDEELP
Described as above.

The target of assay [4] is T4, KDM4B-DTD S965D (human, UniProt O94953 917-1031, S965D).
T4 construct: Human KDM4B double tudor domain, residues 917-1031 of UniProt O94953 (isoform 1); also called KDM4B-S965D; source: E. coli BL21 (DE3), purified (Ni-NTA)
T4 sequence (looked up): T2 sequence (looked up) with A44N, S49D
The assay is described as above.

For assay [5], the target named is T5, KDM4A double tudor domain (KDM4A-DTD), His6 tag cleaved, for crystallization (human, UniProt O75164 895-1011).
T5 construct: Human KDM4A double tudor domain, residues 895-1011 of UniProt O75164 (isoform 1); pET28 construct (pET28b in the plasmid section, pET28a in the purification section); also called N-His6-KDM4A-DTD; source: E. coli BL21 (DE3), purified (HisTrap, thrombin cleavage, gel filtration); not shown: His6, N-terminal, cleaved
T5 sequence (looked up): T1 sequence (looked up) with D37N
Put plainly: crystal structure; KDM4A-DTD mixed with H3K23me3 peptide at about 1:1.5, crystallized at 20 °C in 100 mM CAPS pH 10.5, 200 mM lithium sulfate, 1.2 M NaH2PO4, 0.8 M K2HPO4.

Changes are numbered by the printed parent chain. No end group written: not given here. Me3 = trimethyl-lysine

B1: H3K14me3 peptide, fluorescein-labelled (peptide)
chain: ARKSTGGK(Me3)APRKQLATK
modifications: also: fluorescein label, end not given here
The molecule B1 had a Kd in assay [1] of 12.2 µM.

B2: H3K4me3 peptide, fluorescein-labelled (peptide)
chain: ARTK(Me3)QTARKSTGGK
modifications: also: fluorescein label, end not given here
As to B2, the figures for the Kd in assay [2], in assay [3] and in assay [4] were 303 µM, 6.8 µM and around 200 µM, respectively.

B3: H3 (19-28) K23me3 peptide for co-crystallization (peptide, UniProt P68431 20-29, looked up)
peptide: QLATK(Me3)AARKS
notes: density seen for Q19-K27; also called H3K23me3 peptide; H3 (19-27) K23me3 peptide; source: synthetic peptide, bought: Peptide 2.0
In the case of B3, in assay [5], the binding result is given as “binds”.

As a reminder, the Kd is the free concentration of one partner at which half of the binding sites on the other are occupied at equilibrium, for simple one-to-one binding. Read a low Kd as higher affinity.

(Values after paper PMC5114558, “Reader domain specificity and lysine demethylase-4 family function” (Nature Communications, 2016).)
